Results on 1 substance are retold here after article PMC7891396.

In this experiment the target is Int^C-eGFP-H6 with the C124A and N146A mutations (construct 9), inactivated C-terminal precursor of the AceL NrdHF split intein (not stated (metagenomic contig from the Antarctic Ace Lake, might originate from a bacteriophage)). The experiment can be described thus: MST; Monolith NT.115; 9 at 8.8 nM (eGFP as fluorophore), 1 in a dilution series from 2500 to 0.61 nM; BSA 0.05 % (w/v) and Tween-20 0.1 % (v/v) added; 20 % MST power, 20 % blue LED; four parametric sigmoidal fit.

What is called Kd is the concentration at which binding is half-saturated. In turn, “MBP-Int^N-H6 (1), N-terminal precursor of the AceL NrdHF split intein (domain or fragment)” had a Kd of 82.2 nM.
